Experimental data reported in paper PMC3977038 (Nature structural & molecular biology, 2014).

Assays:
IgE-Fc(N265Q,N371Q) [1] = molecular target: T1, IgE-Fc(N265Q,N371Q) (human, UniProt P01854); test: SPR
T1 chain: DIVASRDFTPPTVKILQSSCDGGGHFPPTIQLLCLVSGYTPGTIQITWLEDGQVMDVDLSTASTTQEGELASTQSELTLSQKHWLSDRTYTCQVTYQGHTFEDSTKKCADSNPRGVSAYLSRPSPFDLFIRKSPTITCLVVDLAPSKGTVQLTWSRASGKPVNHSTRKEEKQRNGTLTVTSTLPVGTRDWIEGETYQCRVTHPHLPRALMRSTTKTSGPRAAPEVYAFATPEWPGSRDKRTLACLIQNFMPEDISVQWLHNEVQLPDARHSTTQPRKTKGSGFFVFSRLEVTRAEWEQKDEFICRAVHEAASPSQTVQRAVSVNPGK

IgE-Fc(N265Q,N371Q) [2] = molecular target: T1, IgE-Fc(N265Q,N371Q); test: stopped-flow fluorescence
IgE-Fc(N265Q,N371Q) [3] = molecular target: T1, IgE-Fc(N265Q,N371Q); test: ITC
IgE-Fc(N265Q,N371Q) [4] = molecular target: T1, IgE-Fc(N265Q,N371Q); test: ITC

- Kd (IgE-Fc(N265Q,N371Q) [1]): 95 nM
- kon (IgE-Fc(N265Q,N371Q) [2]): 670000 M⁻¹ s⁻¹
- dH1 (first site) (IgE-Fc(N265Q,N371Q) [3]): -3.5 ± 0.1 kcal/mol
- dH2 (second site) (IgE-Fc(N265Q,N371Q) [3]): -1.3 ± 0.1 kcal/mol
- Kd (IgE-Fc(N265Q,N371Q) [4]): 40 ± 20 nM
- dH (IgE-Fc(N265Q,N371Q) [4]): -3.5 ± 0.1 kcal/mol
B1: anti-ε-chain Fab (aεFab), anti-human IgE-Fc antibody in human IgG1 Fab format (Fab, V domains shown)
VH: QVQLQQSGPGLVKPSQTLSLTCGISGDSVSSNSAAWNWLRQSPSRGLEWLGRTYYRSKWYNDYAVSMKSRITINPDTSRNQFSLQLNSVTPEDTAVYYCARDGEISYDYYYYGMDVWGRGTLVTVSS
VL: QSVLTQPPSASGTPGQRVTISCSGSSSNIGNNGVNWYQQVPGKPPKLLIYYDDLLPSGVSDRFSGSKSGTSASLAISGLQSEDEADYYCEAWDDSLDGVVFGGGTKLTVL
